Reference: article PMC9234330, “Identification of Two Novel Fluorinases From Amycolatopsis sp. CA-128772 and Methanosaeta sp. PtaU1.Bin055 and a Mutant With Improved Catalytic Efficiency With Native Substrate” (Frontiers in Bioengineering and Biotechnology, 2022)

Substrate: C[S+](CC[C@H](N)C(=O)O)C[C@H]1O[C@@H](n2cnc3c(N)ncnc32)[C@H](O)[C@@H]1O
Assay: purified protein
Assay type: biochemical, Amycolatopsis sp. CA-128772
Conditions: KF 100 mM (methods text says 200 mM), Tris-HCl 50 mM pH 7.8, 50 °C, 10 min

B1: Fam (Amycolatopsis sp. CA-128772) (protein)
chain: MAKPSRPIIAFMSDLGITDDSVAQCKGLMLSVCPDVTIVDVCHTMKPWDVEEGARYIVDLPRLFPEGTVFATTTYPATGTTTRSVALRIKQAAKGGARGQWAGSGAGFERAEGSYIYIAPNNGLLTSVIEEHGYVEAYEVSSTEVIPEQPEPTFYSREMVALPSAHLAAGFPLEKVGRPLADDEIVRFERAKPAQNDDGELVGVVTAIDHPFGNVWTNIHREDLEKLGAGYGTRLRITLDEVLPFDLPLSPTFADAGPIGTPVAYLSSRGYLALARNAASLAYPYNLNAGISVRVVAA
  Km: 77.17 ± 14.10 µM
  kcat: 0.00285 s⁻¹
  kcat/Km: 37 M⁻¹ s⁻¹
